Biological target: WT SOD1, purified from E. coli (human) (UniProt P00441)
Test: NMR titration; 100 uM WT [U-15N]-apo-SOD1^SH in PBS pH 7.4 titrated with unlabelled CCS-D2 up to three equivalents, anaerobic, 298 K, 900 MHz

Sequence of UniProt P00441 (P00441 whole entry): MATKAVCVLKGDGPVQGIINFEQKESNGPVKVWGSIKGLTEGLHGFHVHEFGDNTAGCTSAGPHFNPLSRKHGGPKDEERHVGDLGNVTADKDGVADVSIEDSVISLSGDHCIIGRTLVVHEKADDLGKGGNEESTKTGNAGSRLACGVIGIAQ

percent of apo-SOD1^SH still free with 1 equivalent of CCS-D2: 20%
Substance: CCS-D2, purified from E. coli (domain or fragment)

Source: article PMC5727297
